# Results reported in US20220409668A1, “GENETICALLY MODIFIED HUMAN STEM CELL EXPRESSING A MUTANT HUMAN CYTOCHROME P450 2B6 PROTEIN AND USE THEREOF IN THE TREATMENT OF CANCER” (ASSISTANCE PUBLIQUE-HOPITAUX DE PARIS, priority 2019, published 2022).
# B1: CYP2B6*: mutant human cytochrome P450 2B6 protein of SEQ ID No. 1 with 114V, 199M and 477W residues (protein, listed as Homo sapiens)
# chain: MELSVLLFLALLTGLLLLLVQRHPNTHDRLPPGPRPLPLLGNLLQMDRRGLLKSFLRFREKYGDVFTVHLGPRPVVMLCGVEAIREALVDKAEAFSGRGKIAMVDPFFRGYGVVFANGNRWKVLRRFSVTTMRDFGMGKRSVEERIQEEAQCLIEELRKSKGALMDPTFLFQSITANIICSIVFGKRFHYQDQEFLKMMNLFYQTFSLISSVFGQLFELFSGFLKYFPGAHRQVYKNLQEINAYIGHSVEKHRETLDPSAPKDLIDTYLLHMEKEKSNAHSEFSHQNLNLNTLSLFFAGTETTSTTLRYGFLLMLKYPHVAERVYREIEQVIGPHRPPELHDRAKMPYTEAVIYEIQRFSDLLPMGVPHIVTQHTSFRGYIIPKDTEVFLILSTALHDPHYFEKPDAFNPDHFLDANGALKKTEAFIPFSLGKRICLGEGIARAELFLFFTTILQNFSMASPVAPEDIDLTPQECGWGKIPPTYQIRFLPR
# Assay: affinity of cytochrome P450 2B6 protein for cyclophosphamide (CPA) and Vmax
# Format: biochemical, human
# Source text: In a particularly advantageous embodiment, said variants and fragments have an affinity for CPA that is identical, substantially identical or greater than that of the mutant human cytochrome P450 2B6 protein (CYP2B6*) of SEQ ID No. 1. Methods making it possible to assay said activity and said affinity are well known to a person skilled in the art and are particularly described in Nguyen et al., Mol. Pharmacol., 2008, 73: 1,122-1,133.
molecule,measurement,setting,value
B1,affinity for CPA relative to the wild-type protein (CYP2B6 WT),"fold greater than CYP2B6 WT, substitutions I114V, L199M, V477W",more than 8 times
same,Vmax compared with wild-type protein,"versus CYP2B6 WT, substrate CPA",same Vmax
